Laboratory results reported in EP4703390A1.

Legend:
[1] = biological target: EGFR and c-Met on the surface of tumor cells (human) (UniProt P00533); assay: flow cytometry, NCI-H1993 cells; hIgG1 negative control, EC50 could not be fitted
[2] = biological target: EGFR and c-Met on the surface of tumor cells (human) (UniProt P00533); assay: flow cytometry, A431 cells; hIgG1 negative control, EC50 could not be fitted
[3] = biological target: EGFR and c-Met on the surface of tumor cells (human) (UniProt P00533); assay: cell-based or functional assay
[4] = biological target: EGFR and c-Met on the surface of tumor cells (human) (UniProt P00533); assay: flow cytometry, NCI-H1975 cells; hIgG1 negative control, EC50 could not be fitted

Question: How did the Top(MFI) [1] turn out when “hIgG1 (Biointron, Cat. No. B117901) (antibody)” was run?
Answer: 31200 MFI

Question: And the Top(MFI) [2]?
Answer: 168000 MFI

Question: What about the endocytic activity Top(MFI), A431 cells (negative control) [3] of the same substance?
Answer: 118000 MFI

Question: What about the endocytic activity Top(MFI), NCI-H441 cells (negative control) [3] of the same substance?
Answer: 97500 MFI

Question: And the endocytic activity Top(MFI), NCI-H1975 cells (negative control) [3]?
Answer: 110000 MFI

Question: And the Top(MFI) [4]?
Answer: 38700 MFI
